Test results from patent publication US20030004314A1 (published 2003).

T1: T cell IL-4 receptor (IL-4Rα/IL-2Rγ) (human, UniProt P24394 26-825; P31785 23-369)
T1 sequence (looked up) 1: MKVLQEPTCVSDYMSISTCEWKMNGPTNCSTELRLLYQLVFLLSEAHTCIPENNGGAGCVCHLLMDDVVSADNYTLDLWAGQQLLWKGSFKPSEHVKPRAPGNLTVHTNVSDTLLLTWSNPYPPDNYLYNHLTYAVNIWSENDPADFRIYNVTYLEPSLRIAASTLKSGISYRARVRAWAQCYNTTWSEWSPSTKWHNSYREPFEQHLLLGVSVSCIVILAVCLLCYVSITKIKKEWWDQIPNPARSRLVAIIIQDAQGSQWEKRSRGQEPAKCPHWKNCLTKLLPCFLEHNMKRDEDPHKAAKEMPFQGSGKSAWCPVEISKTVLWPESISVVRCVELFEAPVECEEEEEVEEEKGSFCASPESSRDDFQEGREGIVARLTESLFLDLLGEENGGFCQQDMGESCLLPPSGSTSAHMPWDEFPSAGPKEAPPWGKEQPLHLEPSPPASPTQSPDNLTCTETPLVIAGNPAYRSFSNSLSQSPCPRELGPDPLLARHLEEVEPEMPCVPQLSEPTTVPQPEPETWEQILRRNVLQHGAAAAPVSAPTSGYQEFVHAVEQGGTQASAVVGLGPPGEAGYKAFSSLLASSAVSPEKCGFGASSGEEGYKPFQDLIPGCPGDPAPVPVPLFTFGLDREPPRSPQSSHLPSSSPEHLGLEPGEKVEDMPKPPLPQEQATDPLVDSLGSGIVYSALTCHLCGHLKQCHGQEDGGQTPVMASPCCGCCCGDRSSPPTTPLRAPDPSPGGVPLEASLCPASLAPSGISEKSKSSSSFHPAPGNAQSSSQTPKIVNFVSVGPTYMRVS
T1 sequence (looked up) 2: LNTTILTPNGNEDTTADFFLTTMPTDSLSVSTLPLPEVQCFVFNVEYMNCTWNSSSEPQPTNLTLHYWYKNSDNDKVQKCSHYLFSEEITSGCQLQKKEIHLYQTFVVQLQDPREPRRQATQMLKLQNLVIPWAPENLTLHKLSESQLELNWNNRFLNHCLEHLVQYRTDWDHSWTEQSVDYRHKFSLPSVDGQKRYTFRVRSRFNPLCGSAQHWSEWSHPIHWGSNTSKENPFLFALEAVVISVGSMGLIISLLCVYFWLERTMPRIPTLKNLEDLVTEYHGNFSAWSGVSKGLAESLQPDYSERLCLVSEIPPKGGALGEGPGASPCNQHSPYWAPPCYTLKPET


Key:
Test in all cases: cell-based or functional assay
[1] = target: T1, T cell IL-4 receptor (IL-4Rα/IL-2Rγ)
[2] = target: T2, HUVEC IL-4 receptor (IL-4Rα/γ-like receptor component) (human, UniProt P24394 26-825)
[3] = target: T2, HUVEC IL-4 receptor (IL-4Rα/γ-like …); remark: listed apart in the source

Binder	1° T cell proliferation, EC50, pM [1] [pM]	IC50, HUVEC antagonist assay (IL-4-induced IL-6 secretion) [2] [µM]	HUVEC, IL-6 secretion, EC50, pM [3] [pM]	antagonist potency relative to R121E, HUVEC antagonist assay [2] [fold]
IL-4 mutein R121E (ligand) HKCDITLQEIIKTLNSLTEQKTLCTELTVTDIFAASKNTTEKETFCRAATVLRQFYSHHEKDTRCLGATAQQFHRHKQLIRFLKRLDRNLWGLAGLNSCPVKEANQSTLENFLERLKTIMEEKYSKCSS	65	~0.06		
IL-4 mutein R121T (ligand) HKCDITLQEIIKTLNSLTEQKTLCTELTVTDIFAASKNTTEKETFCRAATVLRQFYSHHEKDTRCLGATAQQFHRHKQLIRFLKRLDRNLWGLAGLNSCPVKEANQSTLENFLERLKTIMTEKYSKCSS	150		20	
IL-4 mutein R121H (ligand) HKCDITLQEIIKTLNSLTEQKTLCTELTVTDIFAASKNTTEKETFCRAATVLRQFYSHHEKDTRCLGATAQQFHRHKQLIRFLKRLDRNLWGLAGLNSCPVKEANQSTLENFLERLKTIMHEKYSKCSS	150		40	
IL-4 mutein R121K (ligand) HKCDITLQEIIKTLNSLTEQKTLCTELTVTDIFAASKNTTEKETFCRAATVLRQFYSHHEKDTRCLGATAQQFHRHKQLIRFLKRLDRNLWGLAGLNSCPVKEANQSTLENFLERLKTIMKEKYSKCSS	150		100	
IL-4 mutein R121T/E122F/Y124Q (ligand) HKCDITLQEIIKTLNSLTEQKTLCTELTVTDIFAASKNTTEKETFCRAATVLRQFYSHHEKDTRCLGATAQQFHRHKQLIRFLKRLDRNLWGLAGLNSCPVKEANQSTLENFLERLKTIMTFKQSKCSS	15			
IL-4 mutein R121I (ligand) HKCDITLQEIIKTLNSLTEQKTLCTELTVTDIFAASKNTTEKETFCRAATVLRQFYSHHEKDTRCLGATAQQFHRHKQLIRFLKRLDRNLWGLAGLNSCPVKEANQSTLENFLERLKTIMIEKYSKCSS	100		40	
IL-4 mutein R121A (ligand) HKCDITLQEIIKTLNSLTEQKTLCTELTVTDIFAASKNTTEKETFCRAATVLRQFYSHHEKDTRCLGATAQQFHRHKQLIRFLKRLDRNLWGLAGLNSCPVKEANQSTLENFLERLKTIMAEKYSKCSS	150		20	
IL-4 mutein R121F (ligand) HKCDITLQEIIKTLNSLTEQKTLCTELTVTDIFAASKNTTEKETFCRAATVLRQFYSHHEKDTRCLGATAQQFHRHKQLIRFLKRLDRNLWGLAGLNSCPVKEANQSTLENFLERLKTIMFEKYSKCSS	150		20	
IL-4 mutein R121N (ligand) HKCDITLQEIIKTLNSLTEQKTLCTELTVTDIFAASKNTTEKETFCRAATVLRQFYSHHEKDTRCLGATAQQFHRHKQLIRFLKRLDRNLWGLAGLNSCPVKEANQSTLENFLERLKTIMNEKYSKCSS	150		35	
IL-4 mutein R121P (ligand) HKCDITLQEIIKTLNSLTEQKTLCTELTVTDIFAASKNTTEKETFCRAATVLRQFYSHHEKDTRCLGATAQQFHRHKQLIRFLKRLDRNLWGLAGLNSCPVKEANQSTLENFLERLKTIMPEKYSKCSS	100		650	
IL-4 mutein R121D (ligand) HKCDITLQEIIKTLNSLTEQKTLCTELTVTDIFAASKNTTEKETFCRAATVLRQFYSHHEKDTRCLGATAQQFHRHKQLIRFLKRLDRNLWGLAGLNSCPVKEANQSTLENFLERLKTIMDEKYSKCSS	100			

Further lines, results first:

1° T cell proliferation, EC50, pM [1] [pM]	IC50, HUVEC antagonist assay (IL-4-induced IL-6 secretion) [2] [µM]	HUVEC, IL-6 secretion, EC50, pM [3] [pM]	antagonist potency relative to R121E, HUVEC antagonist assay [2] [fold]	Binder
750		250		IL-4 mutein Y124R (ligand) HKCDITLQEIIKTLNSLTEQKTLCTELTVTDIFAASKNTTEKETFCRAATVLRQFYSHHEKDTRCLGATAQQFHRHKQLIRFLKRLDRNLWGLAGLNSCPVKEANQSTLENFLERLKTIMREKRSKCSS
150		65		IL-4 mutein Y124A (ligand) HKCDITLQEIIKTLNSLTEQKTLCTELTVTDIFAASKNTTEKETFCRAATVLRQFYSHHEKDTRCLGATAQQFHRHKQLIRFLKRLDRNLWGLAGLNSCPVKEANQSTLENFLERLKTIMREKASKCSS
100	~0.0022		~27	IL-4 mutein T13D/R121E (ligand) HKCDITLQEIIKDLNSLTEQKTLCTELTVTDIFAASKNTTEKETFCRAATVLRQFYSHHEKDTRCLGATAQQFHRHKQLIRFLKRLDRNLWGLAGLNSCPVKEANQSTLENFLERLKTIMEEKYSKCSS
600		200		IL-4 mutein Y124A/S125A (ligand) HKCDITLQEIIKTLNSLTEQKTLCTELTVTDIFAASKNTTEKETFCRAATVLRQFYSHHEKDTRCLGATAQQFHRHKQLIRFLKRLDRNLWGLAGLNSCPVKEANQSTLENFLERLKTIMREKAAKCSS
250		200		IL-4 mutein Y124Q (ligand) HKCDITLQEIIKTLNSLTEQKTLCTELTVTDIFAASKNTTEKETFCRAATVLRQFYSHHEKDTRCLGATAQQFHRHKQLIRFLKRLDRNLWGLAGLNSCPVKEANQSTLENFLERLKTIMREKQSKCSS
150		80		IL-4 mutein R121W (ligand) HKCDITLQEIIKTLNSLTEQKTLCTELTVTDIFAASKNTTEKETFCRAATVLRQFYSHHEKDTRCLGATAQQFHRHKQLIRFLKRLDRNLWGLAGLNSCPVKEANQSTLENFLERLKTIMWEKYSKCSS
300		350		IL-4 mutein Y124T (ligand) HKCDITLQEIIKTLNSLTEQKTLCTELTVTDIFAASKNTTEKETFCRAATVLRQFYSHHEKDTRCLGATAQQFHRHKQLIRFLKRLDRNLWGLAGLNSCPVKEANQSTLENFLERLKTIMREKTSKCSS
425		350		IL-4 mutein Y124S (ligand) HKCDITLQEIIKTLNSLTEQKTLCTELTVTDIFAASKNTTEKETFCRAATVLRQFYSHHEKDTRCLGATAQQFHRHKQLIRFLKRLDRNLWGLAGLNSCPVKEANQSTLENFLERLKTIMREKSSKCSS
